In paper PMC8048842, “A Cyanine‐Bridged Somatostatin Hybrid Probe for Multimodal SSTR2 Imaging in Vitro and in Vivo: Synthesis and Evaluation” (Chembiochem, 2021):
Like-named read-outs stand apart in the source and are kept apart here.

Columns and labels:
BON‐SSTR2 cells [1] = experiment: Toxicity test, cell number (DAPI nuclei counting); format: cell-based, human; conditions: 96 h treatment, up to a concentration of 10 μM, quadruplicates, n=2 (Figure S2)
Description: (§1) Toxicity tests: BON‐SSTR2 cells were seeded in quadruplicates in 96 well plates at a density of 5,000 cells per well and grown overnight. […] Metabolic activity and cell number were determined after another 96 h. For this, 100 μL medium containing AlamarBlue™ redox indicator (ThermoFisher) were added on top of each well, incubated for 3–4 h and the resulting fluorescence was measured using an EnVision Multilabel Plate Reader (PerkinElmer). Afterwards, the supernatant was removed; cells were fixated with 4 % v/v formaldehyde for 10 min and stained with 1 μg/mL DAPI in PBS/0.1 % v/v Triton for another 10 min. Four fields per well were imaged using an IN Cell Analyzer 1000 (GE Healthcare) with a 4x objective and nuclei were counted by Investigator software (GE Healthcare). All values were normalized to the control treated with vehicle and analyzed using GraphPad Prism 5.04.

BON‐SSTR2 cells [2] = experiment: Toxicity test, metabolic activity (AlamarBlue); format: cell-based, human; conditions: 96 h treatment, up to a concentration of 10 μM, quadruplicates, n=2 (Figure S2)
Description: as §1

[3] = biological target: T1, ratSSTR2‐GFP fusion protein (Rattus norvegicus, UniProt P30680); experiment: Endocytosis / receptor internalization assay in RIN1038 cells; format: cell-based
T1 construct: expressed in transfected cells
T1 sequence (P30680 whole entry, the tested form may be a part): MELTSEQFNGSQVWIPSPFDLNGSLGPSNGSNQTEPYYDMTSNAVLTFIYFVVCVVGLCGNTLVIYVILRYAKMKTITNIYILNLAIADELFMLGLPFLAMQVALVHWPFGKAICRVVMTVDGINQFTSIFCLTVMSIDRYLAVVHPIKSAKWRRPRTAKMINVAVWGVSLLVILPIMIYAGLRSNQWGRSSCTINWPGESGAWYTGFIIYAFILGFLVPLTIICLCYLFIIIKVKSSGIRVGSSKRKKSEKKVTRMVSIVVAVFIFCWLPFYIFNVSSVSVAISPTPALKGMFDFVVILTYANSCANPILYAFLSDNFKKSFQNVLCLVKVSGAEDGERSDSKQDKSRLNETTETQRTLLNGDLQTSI
Excerpt: Endocytosis assay: Rat insulinoma RIN1038 cells stably expressing a ratSSTR2‐GFP fusion protein almost exclusively show green cell membrane fluorescence in the resting state while in the presence of a functional agonist, the receptor‐GFP fusion protein is translocated to a perinuclear endocytic vesicle compartment. This shift is readily recognized by inspection of the fluorescent image and can be detected by software‐based quantitation algorithms. […] Mounted cells were imaged using a confocal laser‐scanning microscope (LSM510, Carl Zeiss) with a helium–neon laser at 488 and 543 nm, BP505‐525 and LP560 emission filters and a 63x NeoFluar oil immersion objective. […] For automated microscopy, microscopic fluorescence images were recorded by an IN Cell Analyzer 1000 (GE Healthcare) with 20x magnification at 5 frames per well in a 96 well format. Image processing was performed with In Cell Investigator software (GE Healthcare) applying the provided granularity algorithm. The output of the analysis was indicated as vesicle area/cell and was utilized for calculation of concentration‐response curves resulting in the determination of half‐maximal activity (EC50).

in vivo = conditions: female, NMRI-Foxn1nu/Foxn1nu nude, mouse, iv, total radioactivity

Compound	inhibition of proliferation (cell count, DAPI, % control) (BON‐SSTR2 cells [1])	inhibition of metabolism (AlamarBlue fluorescence, % control) (BON‐SSTR2 cells [2])	EC50 ([3]; RIN1038-rSSTR2GFP, axis log DOTA-ICC-TATE [M], R square 0.9899, read-out: EC50 internalization as printed in Figure S2 D) [M]	cellular uptake: colocalization of ICC dye signal with internalized GFP‐fused SSTR2 ([3]; RIN1038 cells overexpressing SSTR2‐GFP, 1 μM conjugate, 30 min, 37 °C, confocal microscopy)	EC50 ([3]; RIN1038 ratSSTR2‐GFP cells, eleven concentrations 3 pM–300 nM, 30 min, 37 °C, quadruplicates, vesicle area/cell, read-out: EC50 of SSTR2‐GFP fusion protein internalization) [M]	tissue uptake at 1 h (in vivo; ex vivo biodistribution uptake in kidneys) [%ID/g]	tissue uptake at 1 h (in vivo; ex vivo biodistribution uptake in liver) [%ID/g]
C[C@@H](O)[C@H](NC(=O)[C@@H]1CSSC[C@H](NC(=O)[C@@H](Cc2ccccc2)NC(=O)c2ccc3c(c2)C(C)(C)/C(=C/C=C/C2=[N+](C)c4ccc(CNC(=O)CNC(=O)CN5CCN(CC(=O)O)CCN(CC(=O)O)CCN(CC(=O)O)CC5)cc4C2(C)C)N3CCCCS(=O)(=O)[O-])C(=O)N[C@@H](Cc2ccc(O)cc2)C(=O)N[C@H](Cc2c[nH]c3ccccc23)C(=O)N[C@@H](CCCCN)C(=O)N[C@@H]([C@@H](C)O)C(=O)N1)C(=O)O [DOTA‐ICC‐TATE]	does not inhibit	does not inhibit	4.21e-10	clearly colocalized	4.2e-10	–	–
C[C@@H](O)[C@H](NC(=O)[C@@H]1CSSC[C@H](NC(=O)[C@@H](Cc2ccccc2)NC(=O)c2ccc3c(c2)C(C)(C)/C(=C/C=C/C2=[N+](C)c4ccc(CNC(=O)CNC(=O)CN5CCN(CC(=O)O)CCN(CC(=O)O)CCN(CC(=O)O)CC5)cc4C2(C)C)N3CCCCS(=O)(=O)[O-])C(=O)N[C@@H](Cc2ccc(O)cc2)C(=O)N[C@H](Cc2c[nH]c3ccccc23)C(=O)N[C@@H](CCCCN)C(=O)N[C@@H]([C@@H](C)O)C(=O)N1)C(=O)O [^68Ga‐DOTA‐ICC‐TATE, metal not drawn]	–	–	–	–	–	~30	5
